Data published in article PMC4060006, “SM proteins Sly1 and Vps33 co-assemble with Sec17 and SNARE complexes to oppose SNARE disassembly by Sec18” (eLife, 2014).
One block for each binder: values may come before it.

B3: Vam3-GST (cytoplasmic domain of Vam3, aa1-264) (domain or fragment, S. cerevisiae, UniProt Q12241 1-264, looked up)
chain: MSFFDIEAQSSKGNSQQEPQFSTNQKTKELSNLIETFAEQSRVLEKECTKIGSKRDSKELRYKIETELIPNCTSVRDKIESNILIHQNGKLSADFKNLKTKYQSLQQSYNQRKSLFPLKTPISPGTSKERKDIHPRTEAVRQDPESSYISIKVNEQSPLLHNEGQHQLQLQEEQEQQQQGLSQEELDFQTIIHQERSQQIGRIHTAVQEVNAIFHQLGSLVKEQGEQVTTIDENISHLHDNMQNANKQLTRADQHQRDRNKCGK
notes: Vam3, vacuole Qa-SNARE, S. cerevisiae, cytoplasmic domain aa1-264, no transmembrane domain; TEV site between SNARE and GST; also called Vam3 cytoplasmic domain; vacuole Qa-SNARE; not shown: GST, C-terminal, kept
B4: His6-Sec22 (soluble domain, aa1-188) (domain or fragment, S. cerevisiae, UniProt P22214 1-188, looked up)
chain: MIKSTLIYREDGLPLCTSVDNENDPSLFEQKQKVKIVVSRLTPQSATEATLESGSFEIHYLKKSMVYYFVICESGYPRNLAFSYLNDIAQEFEHSFANEYPKPTVRPYQFVNFDNFLQMTKKSYSDKKVQDNLDQLNQELVGVKQIMSKNIEDLLYRGDSLDKMSDMSSSLKETSKRYRKSAQKINFD
notes: Sec22, Golgi R-SNARE, S. cerevisiae, soluble domain aa1-188; also called Golgi R-SNARE; source: E. coli (pRIL plasmid), purified (Ni-NTA); not shown: His6, N-terminal, kept
B5: GST-Sed5 SNARE domain (aa170-319) (domain or fragment, S. cerevisiae, UniProt Q01590 170-319, looked up)
chain: ANKDRWQKLTTDTGHAPADDQTQSNHAADLTTYNNSNPFMTSLLDESSEKNNNSSNQGELSFPQNDSQLMLMEEGQLSNNVYLQERNRAVETIESTIQEVGNLFQQLASMVQEQGEVIQRIDANVDDIDLNISGAQRELLKYFDRIKSNR
notes: Sed5, Golgi Qa-SNARE, S. cerevisiae, aa170-319, lacks the N-peptide, the Habc domain and the transmembrane domain; also called Golgi Qa-SNARE lacking N-peptide and Habc domain; not shown: GST, N-terminal, kept

Experiments:
Details in all cases: both partners purified
[1] = target: B3; experiment: pull-down; re-assembly with added SNAREs: as a9, but soluble Qb, Qc and R-SNAREs (~3 µM each) added along with the EDTA quench, 30 min at 30°C
[2] = target: B3; experiment: pull-down; SNARE complex assembly: 125 pmol GST-tagged Qa-SNARE on glutathione sepharose 4B; >=fivefold molar excess of Qb-, Qc- and R-SNAREs overnight at 4°C; SM Assay Buffer (20 mM HEPES, 150 mM NaCl, 2 mM 2-mercaptoethanol, 0.05% Anapoe-X-100, pH 7.4); washed
[3] = target: T1, Vps33 (S. cerevisiae, UniProt P20795 1-691); experiment: pull-down; SNARE complexes (500 nM) on immobilised Qa-SNARE pre-incubated with Sec17 (20 µM) and Sly1 (10 µM) or Vps33 (2.5 µM) 60 min at 30°C in Disassembly Buffer (SM Assay Buffer, 1 mM ATP, 2 mM MgCl2), then Sec18 (300 nM); what stayed on the resin after complete disassembly, SDS-PAGE
T1 construct: Vps33, SM protein of the vacuole, S. cerevisiae; also called vacuole SM protein; late endolysosomal SM; source: insect cells, Baculovirus system, purified
T1 sequence (looked up): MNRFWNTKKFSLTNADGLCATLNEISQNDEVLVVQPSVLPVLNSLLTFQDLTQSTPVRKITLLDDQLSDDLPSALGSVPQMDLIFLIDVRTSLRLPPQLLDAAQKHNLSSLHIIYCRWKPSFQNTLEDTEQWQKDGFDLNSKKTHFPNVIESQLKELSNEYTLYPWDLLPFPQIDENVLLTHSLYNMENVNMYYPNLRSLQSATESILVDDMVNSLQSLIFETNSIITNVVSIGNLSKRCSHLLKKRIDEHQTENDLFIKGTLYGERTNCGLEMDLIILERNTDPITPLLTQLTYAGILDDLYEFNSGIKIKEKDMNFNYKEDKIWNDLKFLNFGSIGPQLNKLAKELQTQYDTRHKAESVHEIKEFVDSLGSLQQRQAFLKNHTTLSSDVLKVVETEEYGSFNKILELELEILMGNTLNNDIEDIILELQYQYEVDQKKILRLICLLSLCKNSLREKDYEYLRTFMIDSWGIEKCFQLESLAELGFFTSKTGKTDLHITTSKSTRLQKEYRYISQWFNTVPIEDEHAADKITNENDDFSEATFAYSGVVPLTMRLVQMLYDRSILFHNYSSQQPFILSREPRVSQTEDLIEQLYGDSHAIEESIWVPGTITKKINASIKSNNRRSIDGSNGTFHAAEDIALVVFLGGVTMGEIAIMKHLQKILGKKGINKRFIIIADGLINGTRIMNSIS

[4] = target: T2, GST-Sed5 full cytoplasmic domain (aa1-319) (S. cerevisiae, UniProt Q01590 1-319); experiment: pull-down; SNARE complex assembly: 125 pmol GST-tagged Qa-SNARE on glutathione sepharose 4B; >=fivefold molar excess of Qb-, Qc- and R-SNAREs overnight at 4°C; SM Assay Buffer (20 mM HEPES, 150 mM NaCl, 2 mM 2-mercaptoethanol, 0.05% Anapoe-X-100, pH 7.4); washed
T2 construct: Sed5, Golgi Qa-SNARE, S. cerevisiae, full cytoplasmic domain aa1-319 with N-peptide and Habc segments, no transmembrane domain; also called GST-Sed5FL; Sed5FL; not shown: GST, N-terminal, kept
T2 sequence (looked up): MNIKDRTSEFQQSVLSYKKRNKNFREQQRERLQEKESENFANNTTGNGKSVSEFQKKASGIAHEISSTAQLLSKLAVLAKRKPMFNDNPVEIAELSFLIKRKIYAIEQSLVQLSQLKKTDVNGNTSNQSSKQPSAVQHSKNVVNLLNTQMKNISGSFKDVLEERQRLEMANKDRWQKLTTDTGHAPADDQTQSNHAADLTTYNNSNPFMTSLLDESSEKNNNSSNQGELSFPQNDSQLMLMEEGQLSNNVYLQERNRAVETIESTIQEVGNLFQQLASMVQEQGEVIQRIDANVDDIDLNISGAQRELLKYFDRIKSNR

[5] = target: B4; experiment: pull-down; re-assembly with added SNAREs: as a9, but soluble Qb, Qc and R-SNAREs (~3 µM each) added along with the EDTA quench, 30 min at 30°C
[6] = target: T3, Sly1 (full length, aa1-667) (S. cerevisiae, UniProt P22213 1-666); experiment: pull-down; SNARE complexes (500 nM) on immobilised Qa-SNARE pre-incubated with Sec17 (20 µM) and Sly1 (10 µM) or Vps33 (2.5 µM) 60 min at 30°C in Disassembly Buffer (SM Assay Buffer, 1 mM ATP, 2 mM MgCl2), then Sec18 (300 nM); what stayed on the resin after complete disassembly, SDS-PAGE
T3 construct: Sly1, Golgi SM protein, S. cerevisiae, printed as full-length aa1-667; construct His6-(tev)-Sly1; as I recall the UniProt entry has 666 residues; the printed 667 may count the stop codon; also called His6-Sly1; Golgi SM protein; source: E. coli (pRIL plasmid), purified (Ni-NTA)
T3 sequence (looked up): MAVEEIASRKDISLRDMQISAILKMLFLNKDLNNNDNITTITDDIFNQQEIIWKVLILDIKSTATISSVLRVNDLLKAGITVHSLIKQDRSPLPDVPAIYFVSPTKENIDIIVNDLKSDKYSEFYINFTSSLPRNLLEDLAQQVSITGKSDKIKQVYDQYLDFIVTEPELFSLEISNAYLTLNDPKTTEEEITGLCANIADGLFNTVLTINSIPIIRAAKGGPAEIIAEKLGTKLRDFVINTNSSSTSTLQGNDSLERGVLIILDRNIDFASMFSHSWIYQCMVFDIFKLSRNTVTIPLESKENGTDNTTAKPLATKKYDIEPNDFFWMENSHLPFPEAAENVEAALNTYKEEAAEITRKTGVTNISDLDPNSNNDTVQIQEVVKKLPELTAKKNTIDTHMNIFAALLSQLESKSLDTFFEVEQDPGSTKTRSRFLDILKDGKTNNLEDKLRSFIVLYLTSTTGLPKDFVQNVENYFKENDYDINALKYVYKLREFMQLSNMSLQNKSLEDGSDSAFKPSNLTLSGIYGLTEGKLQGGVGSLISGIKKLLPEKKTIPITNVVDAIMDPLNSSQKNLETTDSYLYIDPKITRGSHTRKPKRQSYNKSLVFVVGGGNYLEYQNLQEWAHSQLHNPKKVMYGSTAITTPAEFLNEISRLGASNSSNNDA

[7] = target: B5; experiment: pull-down; re-assembly with added SNAREs: as a9, but soluble Qb, Qc and R-SNAREs (~3 µM each) added along with the EDTA quench, 30 min at 30°C

binding result [1]: binds
B1: His6-GFP-Vam7 SNARE domain (aa190-316) (domain or fragment, S. cerevisiae, UniProt P32912 190-316, looked up)
chain: PSTEVTRRAALLRSLLKECDDIGTANIAQDRGRLLGVATSDNSSTTEVQGRTNNDLQQGQMQMVRDQEQELVALHRIIQAQRGLALEMNEELQTQNELLTALEDDVDNTGRRLQIANKKARHFNNSA
notes: Vam7, vacuole Qc-SNARE, S. cerevisiae, SNARE domain aa190-316; also called vacuole Qc-SNARE; source: E. coli (pRIL plasmid), purified (Ni-NTA); not shown: His6, N-terminal, kept; GFP (A207K), N-terminal, kept

binding result [2]: binds
B2: His7-MBP-Vti1 (soluble domain, aa1-194) (domain or fragment, S. cerevisiae, UniProt Q04338 1-194, looked up)
chain: MSSLLISYESDFKTTLEQAKASLAEAPSQPLSQRNTTLKHVEQQQDELFDLLDQMDVEVNNSIGDASERATYKAKLREWKKTIQSDIKRPLQSLVDSGDRDRLFGDLNASNIDDDQRQQLLSNHAILQKSGDRLKDASRIANETEGIGSQIMMDLRSQRETLENARQTLFQADSYVDKSIKTLKTMTRRLVANK
notes: Vti1, vacuole Qb-SNARE, S. cerevisiae, soluble domain aa1-194; also called vacuole Qb-SNARE; source: E. coli (pRIL plasmid), purified (Ni-NTA); not shown: His7, N-terminal, kept; MBP, N-terminal, kept

Binder: B3
binding result [3]: binds

Binder: B4
binding result [4]: binds

Binder: B5
binding result [5]: binds
binding result [6]: binds

binding result [7]: binds
binding result [4]: binds
B6: His7-MBP-Bet1 (soluble domain, aa1-123) (domain or fragment, S. cerevisiae, UniProt P22804 1-123, looked up)
chain: MSSRFAGGNAYQRDTGRTQLFGPADGSNSLDDNVSSALGSTDKLDYSQSTLASLESQSEEQMGAMGQRIKALKSLSLKMGDEIRGSNQTIDQLGDTFHNTSVKLKRTFGNMMEMARRSGISIK
notes: Bet1, Golgi Qc-SNARE, S. cerevisiae, soluble domain aa1-123; also called Golgi Qc-SNARE; source: E. coli (pRIL plasmid), purified (Ni-NTA); not shown: His7, N-terminal, kept; MBP, N-terminal, kept

binding result [1]: binds
B7: His6-Nyv1 (soluble domain, aa1-231) (domain or fragment, S. cerevisiae, UniProt Q12255 1-231, looked up)
chain: MKRFNVSYVEVIKNGETISSCFQPFQKNENYGTITSANEQITPVIFHNLIMDMVLPKVVPIKGNKVTKMSMNLIDGFDCFYSTDDHDPKTVYVCFTLVDMPKILPIRILSGLQEYESNATNELLSSHVGQILDSFHEELVEYRNQTLNSSGNGQSSNGNGQNTISDIGDATEDQIKDVIQIMNDNIDKFLERQERVSLLVDKTSQLNSSSNKFRRKAVNIKEIMWWQKVKN
notes: Nyv1, vacuole R-SNARE, S. cerevisiae, soluble domain aa1-231; also called vacuole R-SNARE; source: E. coli (pRIL plasmid), purified (Ni-NTA); not shown: His6, N-terminal, kept

binding result [4]: binds
B8: His6-Bos1 (soluble domain, aa1-222) (domain or fragment, S. cerevisiae, UniProt P25385 1-222, looked up)
chain: MNALYNHAVKQKNQLQQELARFEKNSVTAPISLQGSISATLVSLEKTVKQYAEHLNRYKEDTNAEEIDPKFANRLATLTQDLHDFTAKFKDLKQSYNENNSRTQLFGSGASHVMDSDNPFSTSETIMNKRNVGGASANGKEGSSNGGGLPLYQGLQKEQSVFERGNAQLDYILEMGQQSFENIVEQNKILSKVQDRMSNGLRTLGVSEQTITSINKRVFKDK
notes: Bos1, Golgi Qb-SNARE, S. cerevisiae, soluble domain aa1-222; also called Golgi Qb-SNARE; source: E. coli Rosetta2 pLys, purified (Ni-NTA); not shown: His6, N-terminal, kept
